These results are taken from paper PMC2132938 (The Journal of Cell Biology, 1999).

Where two headings read alike, the source gives them in different places.

The target of assay [1] is T1, Ran (recombinant human wild-type Ran, charged with GTP or GDP) (human, UniProt P62826 1-216). The experiment in a line: co-IP.
Assay [2] addresses T1, Ran (recombinant human wild-type Ran, …). In words: co-IP. This is another data set of the same source.

B1: transportin (human transportin/karyopherin β2, recombinant) (natural protein)
chain: MEYEWKPDEQGLQQILQLLKESQSPDTTIQRTVQQKLEQLNQYPDFNNYLIFVLTKLKSEDEPTRSLSGLILKNNVKAHFQNFPNGVTDFIKSECLNNIGDSSPLIRATVGILITTIASKGELQNWPDLLPKLCSLLDSEDYNTCEGAFGALQKICEDSAEILDSDVLDRPLNIMIPKFLQFFKHSSPKIRSHAVACVNQFIISRTQALMLHIDSFIENLFALAGDEEPEVRKNVCRALVMLLEVRMDRLLPHMHNIVEYMLQRTQDQDENVALEACEFWLTLAEQPICKDVLVRHLPKLIPVLVNGMKYSDIDIILLKGDVEEDETIPDSEQDIRPRFHRSRTVAQQHDEDGIEEEDDDDDEIDDDDTISDWNLRKCSAAALDVLANVYRDELLPHILPLLKELLFHHEWVVKESGILVLGAIAEGCMQGMIPYLPELIPHLIQCLSDKKALVRSITCWTLSRYAHWVVSQPPDTYLKPLMTELLKRILDSNKRVQEAACSAFATLEEEACTELVPYLAYILDTLVFAFSKYQHKNLLILYDAIGTLADSVGHHLNKPEYIQMLMPPLIQKWNMLKDEDKDLFPLLECLSSVATALQSGFLPYCEPVYQRCVNLVQKTLAQAMLNNAQPDQYEAPDKDFMIVALDLLSGLAEGLGGNIEQLVARSNILTLMYQCMQDKMPEVRQSSFALLGDLTKACFQHVKPCIADFMPILGTNLNPEFISVCNNATWAIGEISIQMGIEMQPYIPMVLHQLVEIINRPNTPKTLLENTAITIGRLGYVCPQEVAPMLQQFIRPWCTSLRNIRDNEEKDSAFRGICTMISVNPSGVIQDFIFFCDAVASWINPKDDLRDMFCKILHGFKNQVGDENWRRFSDQFPLPLKERLAAFYGV
For the molecule B1, in assay [1], the binding result is listed as “binds”.

B2: hGFP–CAS (human CAS fused to hGFP) (natural protein)
chain: MELSDANLQTLTEYLKKTLDPDPAIRRPAEKFLESVEGNQNYPLLLLTLLEKSQDNVIKVCASVTFKNYIKRNWRIVEDEPNKICEADRVAIKANIVHLMLSSPEQIQKQLSDAISIIGREDFPQKWPDLLTEMVNRFQSGDFHVINGVLRTAHSLFKRYRHEFKSNELWTEIKLVLDAFALPLTNLFKATIELCSTHANDASALRILFSSLILISKLFYSLNFQDLPEFFEDNMETWMNNFHTLLTLDNKLLQTDDEEEAGLLELLKSQICDNAALYAQKYDEEFQRYLPRFVTAIWNLLVTTGQEVKYDLLVSNAIQFLASVCERPHYKNLFEDQNTLTSICEKVIVPNMEFRAADEEAFEDNSEEYIRRDLEGSDIDTRRRAACDLVRGLCKFFEGPVTGIFSGYVNSMLQEYAKNPSVNWKHKDAAIYLVTSLASKAQTQKHGITQANELVNLTEFFVNHILPDLKSANVNEFPVLKADGIKYIMIFRNQVPKEHLLVSIPLLINHLQAESIVVHTYAAHALERLFTMRGPNNATLFTAAEIAPFVEILLTNLFKALTLPGSSENEYIMKAIMRSFSLLQEAIIPYIPTLITQLTQKLLAVSKNPSKPHFNHYMFEAICLSIRITCKANPAAVVNFEEALFLVFTEILQNDVQEFIPYVFQVMSLLLETHKNDIPSSYMALFPHLLQPVLWERTGNIPALVRLLQAFLERGSNTIASAAADKIPGLLGVFQKLIASKANDHQGFYLLNSIIEHMPPESVDQYRKQIFILLFQRLQNSKTTKFIKSFLVFINLYCIKYGALALQEIFDGIQPKMFGMVLEKIIIPEIQKVSGNVEKKICAVGITKLLTECPPMMDTEYTKLWTPLLQSLIGLFELPEDDTIPDEEHFIDIEDTPGYQTAFSQLAFAGKKEHDPVGQMVNNPKIHLAQSLHKLSTACPGRVPSMVSTSLNAEALQYLQGYLQAASVTLL
Consider B2, for which the binding result in assay [2] is reported as “binds”.
